Source: patent US9518268B2, “Drought tolerant transgenic plants and method of making same” (PURDUE RESEARCH FOUNDATION, priority 2013, dated 2016)
Substitutions are numbered along the chain they refer to. Names may count otherwise.

B1: PYL11-K39Q/L66F (protein)
chain: METSQKYHTCGSTLVQTIDAPLSLVWSILRRFDNPQAYQQFVKTCNLSSGDGGEGSVREVTVVSGFPAEFSRERLDELDDESHVMMISIIGGDHRLVNYRSKTMAFVAADTEEKTVVVESYVVDVPEGNSEEETTSFADTIVGFNLKSLAKLSERVAHLKL
B2: PYL9-K63Q/L89F (protein)
chain: MMDGVEGGTAMYGGLETVQYVRTHHQHLCRENQCTSALVKHIKAPLHLVWSLVRRFDQPQKYQPFVSRCTVIGDPEIGSLREVNVKSGFPATTSTERLELLDDEEHILGIKIIGGDHRLKNYSSILTVHPEIIEGRAGTMVIESFVVDVPQGNTKDETCYFVEALIRCNLKSLADVSERLASQDITQ
B3: PYR1: Arabidopsis thaliana ABA receptor protein PYR1, AT4G17870 (protein, listed as Arabidopsis thaliana)
chain: MPSELTPEERSELKNSIAEFHTYQLDPGSCSSLHAQRIHAPPELVWSIVRRFDKPQTYKHFIKSCSVEQNFEMRVGCTRDVIVISGLPANTSTERLDILDDERRVTGFSIIGGEHRLTNYKSVTTVHRFEKENRIWTVVLESYVVDMPEGNSEDDTRMFADTVVKLNLQKLATVAEAMARNSGDGSGSQVT
B4: Q38K/F71L (protein)
chain: MESSKQKRCRSSVVETIEAPLPLVWSILRSFDKPQAYKRFVKSCTMRSGGGGGKGGEGKGSVRDVTLVSGLPADFSTERLEELDDESHVMVVSIIGGNHRLVNYKSKTKVVASPEDMAKKTVVVESYVVDVPEGTSEEDTIFFVDNIIRYNLTSLAKLTKKMMK
B5: Q38K/F71L/T135N (protein)
chain: B4 chain with T135N
B6: Q38K/F71L/N98D/T135N (protein)
chain: B4 chain with N98D, T135N
B7: Q38K/F71L/N98D (protein)
chain: B4 chain with N98D

Assays:
[1] = test system: RD29B-LUC expression; test: ABA-independent induction of RD29B-LUC in triple mutant protoplasts; format: cell-based, Arabidopsis; settings: for ABA-independent RD29B-LUC expression, as share of that in the presence of 5 μM ABA: abi1/hab1/abi2 and abi1hab1pp2ca triple mutant protoplasts, with SnRK2.6 and ABF2
Source text: The basal RD29B-LUC expression level was elevated in protoplasts co-transfected with PP2CA-PYL13, HAI2-PYL13, or HAI3-PYL13, which is consistent with PYL13 inhibition of these PP2Cs in an ABA-independent manner in vivo (FIG. 4A). To exclude interference by endogenous PP2Cs in wild type protoplasts and to assess the ABA-independent selective inhibition of PP2Cs by PYL13, PYL13 was co-expressed with PP2CA, HAI1, HAI2, and HAI3 in abi1/hab1/abi2 triple mutant protoplasts, as shown in FIG. 4C. After transfection, protoplasts were incubated for 4.5 h under light in the absence of ABA. Error bars indicate s.e.m. (n=3).
Expression of RD29B-LUC in the absence of ABA was increased in the transfections of PYL9-K63Q/L89F or PYL11-K39Q/L66F together with SnRK2.6 and ABF2 to a considerable level. The ABA-independent RD29B-LUC expression is about 70% of that in the presence of 5 μM ABA in the transfection of PYL11-K39Q/L66F, while about 30˜60% in the transfection of PYL9-K63Q/L89F (FIG. 4). […] RD29B-LUC was used as the ABA-responsive reporter. ZmUBQ-GUS was used as the internal control. After transfection, protoplasts were incubated for 4.5 h under light in the absence of ABA (open bars) or in the presence of 5 μM ABA (closed bars). Error bars indicate s.e.m. (n=4).
(§1) Assays for transient expression in protoplasts were performed as described (Fujii et al., 2009). Leaf strips (0.5 mm) were cut from the middle part of second leaves using a razor blade (VWR SCIENTIFIC) and submerged in 15 mL of enzyme solution containing 20 mM MES, pH 5.7, 1.5% (w/v) cellulase R10 (YAKULT PHARMACEUTICAL INDUSTRY), 0.4% (w/v) macerozyme R10 (YAKULT PHARMACEUTICAL INDUSTRY), 0.4 M mannitol, 20 mM KCl, 10 mM CaCl2, 1 mM 2-mercaptoethanol, and 0.1% BSA. The leaves were vacuum infiltrated for 30 min and then incubated without shaking for 3 h in the dark at room temperature. The enzyme/protoplast solution was diluted with 15 mL of W5 solution (2 mM MES, pH 5.7, 154 mM NaCl, 125 mM CaCl2, and 5 mM KCl) and filtered with a 75-μm nylon mesh. Protoplasts were centrifuged at 100 g for 2 min in a 30-mL round-bottomed tube (SARSTEDT), resuspended in W5 solution, and rested for 30 min at room temperature.
(§2) Before transfection, protoplasts were changed into MMg solution (4 mM MES, pH 5.7, 0.4 M mannitol, and 15 mM MgCl2) to a final concentration of 2×10^5 cells per microliter. Protoplasts (100 μl) were gently and thoroughly mixed with the plasmid DNA mixture (less than 10 μl) and 110 μl of PEG solution (40% w/v PEG-4000, 0.2 M mannitol, and 100 mM CaCl2), incubated for 5 min, washed with 440 μl of W5 solution, and resuspended in 50 μl of WI solution (4 mM MES, pH 5.7, 0.5 M mannitol, and 20 mM KCl). After transfection, protoplasts were incubated in WI solution without ABA or with 5 μM ABA under light. The protoplasts were harvested after 4.5 h, frozen in liquid N2, and stored at −80° C.
The frozen protoplasts were resuspended in 50 μl of protoplast lysis buffer containing 2.5 mM Tris-phosphate, pH 7.8, 1 mM DTT, 2 mM DACTAA, 10% (v/v) glycerol, and 1% (v/v) Triton X-100. Protoplast lysates (20 μl) were mixed with 100 μl of LUC mix (PROMEGA), and LUC luminescence was measured with a plate reader (Wallac VICTOR2 plate reader).
Protoplast lysates (2 μl) were mixed with 10 μl of 4-methylumbelliferyl β-D-glucuronide (MUG) substrate mix (10 mM Tris-HCl, pH 8, 1 mM MUG [GOLD BIOTECHNOLOGY], and 2 mM MgCl2). After the mixture was kept for 30 min at 37° C., 100 μl of 0.2 M Na2CO3 was added, and GUS activity was measured using the plate reader with the excitation filter at 355 nm and the emission filter at 460 nm.
All the plasmids used in this assay were purified with the QIAGEN Plasmid Maxi Kit or the QIAGEN Plasmid Midi Kit. The quality of plasmid DNA is important for high transfection efficiency. RD29B::LUC (7 μg of plasmid per transfection) was used as the ABA-responsive reporter. ZmUBQ::GUS (2 μg of plasmid per transfection) was used as the internal control. […]

[2] = test system: RD29B-LUC expression; test: Reconstituted ABA signaling pathway, transient expression in wild-type (Col-0) protoplasts; format: cell-based, Arabidopsis; settings: for ABA-dependent induction of RD29B-LUC expression: co-transfected with ABI1, SnRK2.6 and ABF2, without or with 5 μM ABA, 4.5 h
Protocol: To test whether PYL13 can act as an ABA receptor, the ABA signaling pathway in wild-type protoplasts was reconstituted. Turning now to FIG. 1, wild-type (Col-0) protoplasts were used in both panels A and B. After transfection, the protoplasts were incubated for 4.5 hours under light in the absence of ABA (open bars) or in the presence of 5 μM ABA (closed bars). Error bars indicate s.e.m. (n=3). […] ZmUBQ-GUS was used as the internal control. […] Instead, the ABA signaling pathway was reconstituted by co-expression of PYLs, ABI1, SnRK2.6, and ABF2. […] Therefore, the response of other members of the PYL family would not predict the response of PYL13 expression or over-expression in plants.
PYL13 interacts with all clade A PP2Cs tested but binds most strongly to PP2CA. To investigate whether PYL13 inhibits PP2Cs in planta, PYL13 was co-expressed with all clade A PP2Cs in wild-type protoplasts, as shown in FIG. 4. Transfections of all PP2Cs together with SnRK2.6 and ABF2 inhibited RD29B-LUC expression to different degrees, see FIG. 4A, and the degree of inhibition was correlated with the intensity of interaction between PP2Cs and SnRK2.6 (Fujii et al., 2009). […] The ABA signaling pathway was reconstituted by co-expression of PYLs, PP2Cs, SnRK2.6, and ABF2. RD29B-LUC was used as the ABA-responsive reporter. ZmUBQ-GUS was used as the internal control. After transfection, protoplasts were incubated for 4.5 h under light in the absence of ABA (open bars) or in the presence of 5 μM ABA (closed bars). Error bars indicate s.e.m. (n=9).
To investigate the physiological significance of the binding between PYL13 and PYLs in vivo, PYL13 was co-expressed with one of the other PYLs, ABI1, SnRK2.6, and ABF2 in wild-type protoplasts. When the transfected PYL13 plasmid was 2-fold of that of the other PYLs, co-transfections with PYL13 decreased the activity of the ABA-responsive PYLs (FIG. 5E). […] ZmUBQ-GUS was used as the internal control. After transfection, protoplasts were incubated for 4.5 h under light in the absence of ABA (open bars) or in the presence of 5 μM ABA (closed bars). Error bars indicate s.e.m. (n=3).
The ABA signaling pathway was reconstituted by co-expression of PYL13, PYLs, ABI1, SnRK2.6, and ABF2. […] Error bars indicate s.e.m. (n=3). […] Without wishing to be bound by theory, PYL13 inhibition of other PYLs might result from direct interactions between PYL13 and other PYLs or from competition for the binding sites on PP2Cs.
as §1
as §2, with “The protoplasts were harvested after 4.5 h, frozen in liquid N2, and stored at −80° C.” left out

Molecule | ABA-independent RD29B-LUC expression, as share of that in the presence of 5 μM ABA [1] | ABA-dependent induction of RD29B-LUC expression [2] | RD29B-LUC expression ([2]; with ABI1, HAB1, HAB2, HAI1, and AHG1, SnRK2.6 and ABF2) | expression of RD29B-LUC in the absence of ABA ([1]; abi1/hab1/abi2 protoplasts, with PP2CA, HAI2, or HAI3, SnRK2.6 and ABF2)
B1 | about 70% | cannot antagonize |  | 
B2 | 30˜60% | cannot antagonize |  | 
B3 |  | restored RD29B-LUC expression |  | 
B4 |  | could partially confer | conferred an ABA-dependent induction | 
B5 |  | could partially confer |  | 
B6 |  | could partially confer |  | abolished
B7 |  | could partially confer |  | 
